From US8697386B2, “Methods and compositions for modulating hepsin activation of macrophage-stimulating protein” (Genentech, Inc., priority 2009, dated 2014)

Legend:
[1] = molecular target: T1, cell surface expressed hepsin in LnCap-34 cells (Homo sapiens, UniProt P05981); test: Pro-MSP activation by cell surface expressed hepsin in LnCap-34 cells; format: cell-based; conditions: 1 μM inhibitor, 15 minutes preincubation, 125I-pro-MSP 25 μg/ml, 3 hours, 37° C.
T1 construct: expressed in transfected cells; host or cells: LnCaP-34 cells
T1 sequence (P05981 whole entry): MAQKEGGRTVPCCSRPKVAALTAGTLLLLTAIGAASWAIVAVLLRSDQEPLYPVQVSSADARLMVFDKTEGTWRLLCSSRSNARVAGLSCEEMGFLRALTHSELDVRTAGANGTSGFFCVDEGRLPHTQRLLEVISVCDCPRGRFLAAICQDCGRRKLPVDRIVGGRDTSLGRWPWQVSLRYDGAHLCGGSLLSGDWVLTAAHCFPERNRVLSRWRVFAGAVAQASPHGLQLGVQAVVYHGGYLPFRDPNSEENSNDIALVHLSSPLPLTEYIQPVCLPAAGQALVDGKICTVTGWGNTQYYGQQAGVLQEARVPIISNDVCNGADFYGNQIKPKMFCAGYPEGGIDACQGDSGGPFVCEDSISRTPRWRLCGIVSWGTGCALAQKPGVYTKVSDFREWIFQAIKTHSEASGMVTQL
Description: Confluent LnCap-34 cells cultured in 24-well plates were washed with serum-free RPMI-1640 medium and were incubated either alone or with different anti-hepsin inhibitors (1 μM of anti-hepsin antibody Fab25/1 μM of KD1/1 μM of Ac-KQLR-cmk (‘KLQR” disclosed as SEQ ID NO:10)) in serum-free RPMI-1640 medium for 15 minutes at 37° C. prior to addition of 125I-labeled pro-MSP (25 μg/ml). After incubation for 3 hours at 37° C., aliquots were removed and analyzed by SDS-PAGE (4-20% gradient gel) (Invitrogen, Carlsbad, Calif.) followed by exposure to X-ray films.

peritoneal macrophages = test: Peritoneal macrophage chemotaxis assay; format: cell-based, mouse; conditions: pre-treatment with inhibitor
Description: Peritoneal macrophage chemotaxis and morphology change assay: Murine peritoneal resident macrophages were obtained from C57BL/6 mice by washing the peritoneal cavity with 15 ml per mouse of serum-free RPMI-1640 medium. Cells were washed and resuspended in RPMI-1640 medium containing 25 mM Hepes at a concentration of 1×10^6 cells·mL^−1. The macrophage chemotaxis assay was performed using a QCM chemotaxis assay kit with a pore size of 5 μm (Millipore). One hundred microliters of the peritoneal macrophage suspension (i.e. 10^5 cells) were added to the upper wells of the Chemotaxis cells. The bottom wells were filled with RPMI-1640 medium containing purified pro-MSP either alone or hepsin-treated at 37 C for 2 hours. The recombinant active form of human MSP (R&D Systems) was used as a positive control. After incubation at 37 C for 4 hours, the cells on the upper surface of the membrane were wiped off with a cotton swab and the migrated cells were detached using detachment buffer as per manufacturer's recommendations. Aliquots from different wells were incubated with a mixture of lysis buffer and CYPRO dye for 15 minutes. Migration was quantified by measuring the fluorescence using a microplate reader (Spectramax-M5, Molecular devices, Sunnyvale, Calif.) at an excitation wavelength of 480 nm and emission wavelength of 520 nm.

bone marrow macrophages = test: Inhibition of nitric oxide (NO) synthesis in bone marrow macrophages; format: cell-based, mouse; conditions: pro-MSP 10 ng/ml mixed with hepsin 1 nM and Fab25 500 nM, 24 hours, LPS
Description: Inhibition of NO synthesis by mature MSP: Bone marrow cells obtained from collected mouse femurs were pipetted to a single-cell suspension and then spun down. Red blood cells were lysed by incubation with erythrocyte lysis buffer for 5 minutes at room temperature. Cells were then suspended in macrophage differentiation medium (DMEM with glutamine containing 10% FBS, Pen/Strep and 50 ng/ml recombinant mCSF-1). Cells were then plated onto sterile 24-well non-tissue culture dishes. Medium was changed the next day and subsequently every 2 days. After 6 days in culture, the macrophages were mature and these mature cells were washed in serum-free DMEM and further incubated for 2 hours. Different reactions (total volume 300 μL) as indicated in the figure consisting of recombinant MSP (10 ng/ml), pro-MSP (10 ng/ml), hepsin (1 nM) and Fab25 (500 nM) were added to the respective wells and cultured for 24 hours at 37° C. in a tissue culture incubator. NO production was quantified using Griess reaction (Molecular Probes) according to manufacturer's recommendation.

B1: Fab25: anti-hepsin antibody Fab that blocks hepsin activation of pro-MSP (antibody, V domains shown)
VH: EVQLVESGGGLVQPGGSLRLSCAASGFNFSYSYMHWVRQAPGKGLEWVASIYSYYGSTYYADSVKGRFTISADTSKNTAYLQMNSLRAEDTAVYYCARSDSWSYKSGYTQKIYSKGLDYWGQGTLVTVSS
VL: DIQMTQSPSSLSASVGDRVTITCRASQSVSSAVAWYQQKPGKAPKLLIYSASSKGVPSRFSGSRSGTDFTLTISSLQPEDFATYYCQQYYSSYYLLTFGQGTKVEIK
[1]
  blocking of pro-MSP proteolytic cleavage by cell surface hepsin: effectively blocked
Peritoneal macrophages
  effect of anti-hepsin inhibitor pre-treatment on migration of macrophages induced by hepsin-treated pro-MSP: marked reduction
Bone marrow macrophages
  effect of anti-hepsin antibody on attenuation of NO production by hepsin-activated MSP: did not inhibit robust production of nitric oxide
Bone marrow macrophages; listed as anti-hepsin antibody
  effect of anti-hepsin antibody on attenuation of NO production by hepsin-activated MSP: completely inhibited
